Here are results for twelve molecules from patent US20160264663A1 (published 2016).

For test [1], the target named is T1, human podocalyxin (human).
T1 chain: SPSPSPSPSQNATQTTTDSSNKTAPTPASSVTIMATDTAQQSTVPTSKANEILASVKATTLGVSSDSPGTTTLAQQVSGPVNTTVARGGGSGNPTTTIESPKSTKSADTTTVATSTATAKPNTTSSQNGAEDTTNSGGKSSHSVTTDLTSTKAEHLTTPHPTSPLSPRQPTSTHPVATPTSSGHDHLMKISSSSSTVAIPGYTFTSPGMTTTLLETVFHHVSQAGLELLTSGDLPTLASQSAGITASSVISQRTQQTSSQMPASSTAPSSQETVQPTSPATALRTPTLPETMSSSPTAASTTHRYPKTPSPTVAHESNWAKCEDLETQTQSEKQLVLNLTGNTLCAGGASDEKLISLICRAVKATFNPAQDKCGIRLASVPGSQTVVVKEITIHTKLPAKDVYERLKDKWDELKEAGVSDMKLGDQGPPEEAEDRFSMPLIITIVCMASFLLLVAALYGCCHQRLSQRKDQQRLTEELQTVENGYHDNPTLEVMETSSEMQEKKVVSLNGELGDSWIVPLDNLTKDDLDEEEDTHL
Put plainly: FACS, isotype control, hPodo/MDA cells. A general note: A flow cytometer gives signals particle by particle.

For test [2], the target named is T1, human podocalyxin. Put plainly: cross competition FACS on MDA-MB-231 cells; unlabeled antibody 25 ug/mL; detected antibody: B-mIgG1 5 ug/mL (control).
The target in test [3] is T1, human podocalyxin. Put plainly: cross competition FACS on MDA-MB-231 cells; unlabeled antibody 25 ug/mL; detected antibody: B-Ova 12 5 ug/mL (control).
Test [4] deals with T1, human podocalyxin. Put plainly: cross competition FACS on MDA-MB-231 cells; unlabeled antibody 25 ug/mL; competitor and detected antibody: B-3G2.2 5 ug/mL.
For test [5], the target named is T1, human podocalyxin. Put plainly: cross competition FACS on MDA-MB-231 cells; unlabeled antibody 25 ug/mL; competitor and detected antibody: biotinylated Rb/Hu Podo83 5 ug/mL.
Test [6] addresses T1, human podocalyxin. Put plainly: cross competition FACS on MDA-MB-231 cells; unlabeled antibody 25 ug/mL; detected antibody: B-Herceptin 5 ug/mL (control, its target on the cells not given).
Test [7] has as its target T1, human podocalyxin. The test can be described thus: flow cytometry, control antibody, A172 cells.
Test [8] has as its target T1, human podocalyxin. The test can be described thus: flow cytometry, control antibody, MCF7 cells.
Test [9] has as its target T1, human podocalyxin. The test can be described thus: flow cytometry, control antibody, CaOV3 cells.
In test [10] the target is T1, human podocalyxin. Put plainly: flow cytometry, control antibody, HUVEC cells.
The target of test [11] is T1, human podocalyxin. The test can be described thus: flow cytometry, control antibody, T47-D cells.
Test [12] deals with T1, human podocalyxin. Put plainly: flow cytometry, control antibody, OVCAR3 cells.
In test [13] the target is T1, human podocalyxin. The test can be described thus: flow cytometry, control antibody, 293 HEK cells.
Test [14] addresses T1, human podocalyxin. Put plainly: flow cytometry, control antibody, OVCAR10 cells.
The target of test [15] is T1, human podocalyxin. Put plainly: flow cytometry, control antibody, MDA-MB-231 cells.
The target of test [16] is human podocalyxin (human). Put plainly: FACS, hPodo/MDA cells (MDA-MB-231 transfected with human podocalyxin cDNA).
The target of test [17] is human podocalyxin (human). The test can be described thus: flow cytometry, supernatant 1:5, MDA-MB-231 cells.
Test [18] addresses human podocalyxin (human). The test can be described thus: flow cytometry, supernatant neat, MDA-MB-231 cells.
Test [19] addresses human podocalyxin (human). The test can be described thus: flow cytometry, supernatant 1:125, MDA-MB-231 cells.
Test [20] addresses human podocalyxin (human). The test can be described thus: flow cytometry, supernatant 2:15 (so in the source), MDA-MB-231 cells.
Test [21] concerns the target human podocalyxin (human). Put plainly: flow cytometry, supernatant 1:5, hPodo/MDA-MB-231 transient transfectants.
Test [22] deals with human podocalyxin (human). The test can be described thus: flow cytometry, supernatant neat, hPodo/MDA-MB-231 transient transfectants.
For test [23], the target named is human podocalyxin (human). Put plainly: flow cytometry, supernatant 1:125, hPodo/MDA-MB-231 transient transfectants.
Test [24] deals with human podocalyxin (human). Put plainly: flow cytometry, supernatant 2:15 (so in the source), hPodo/MDA-MB-231 transient transfectants.
The target in test [25] is T1, human podocalyxin. The test can be described thus: kinetic exclusion assay (KinExA 3200), MDA-MB-231 cells.
Test [26] has as its target T1, human podocalyxin. Put plainly: flow cytometry, supernatant 1:5, MDA-MB-231 cells.
The target of test [27] is T1, human podocalyxin. Put plainly: flow cytometry, supernatant neat, MDA-MB-231 cells.
In test [28] the target is T1, human podocalyxin. Put plainly: flow cytometry, supernatant 1:125, MDA-MB-231 cells.
The target of test [29] is T1, human podocalyxin. Put plainly: flow cytometry, supernatant 2:15 (so in the source), MDA-MB-231 cells.
The target in test [30] is T1, human podocalyxin. The test can be described thus: flow cytometry, supernatant 1:5, hPodo/MDA-MB-231 transient transfectants.
Test [31] deals with T1, human podocalyxin. The test can be described thus: flow cytometry, supernatant neat, hPodo/MDA-MB-231 transient transfectants.
Test [32] has as its target T1, human podocalyxin. The test can be described thus: flow cytometry, supernatant 1:125, hPodo/MDA-MB-231 transient transfectants.
In test [33] the target is T1, human podocalyxin. The test can be described thus: flow cytometry titration on 293-6E cells (endogenous podocalyxin), 24 hours at 4 C.
Test [34] addresses T1, human podocalyxin. Put plainly: flow cytometry titration on 293-6E cells (endogenous podocalyxin), 48 hours at 4 C.
Test [35] has as its target T1, human podocalyxin. The test can be described thus: flow cytometry, supernatant 2:15 (so in the source), hPodo/MDA-MB-231 transient transfectants.

hIgG1 (antibody) displayed an FACS signal (name not given) with human podocalyxin [1] of 544.

Turning to “3D3 (Santa Cruz Biotechnology sc23904) (antibody)”, the FACS signal (name not given) was found to be 419 with human podocalyxin [2]; 450 in the test with human podocalyxin [3]; 26400 with human podocalyxin [4]; 135000 with human podocalyxin [5]; 4820 in the test with human podocalyxin [6].

With mIgG1 (antibody), the FACS signal (name not given) in the test with human podocalyxin [2] stood at 414; in the test with human podocalyxin [3], 458; with human podocalyxin [4], 26600; with human podocalyxin [5], 124000; with human podocalyxin [6], 4810.

As for Control Rb/Hu IgG1 (antibody), the Live cell GeoMean FL (geometric mean fluorescence units) with human podocalyxin [7] amounted to 644; with human podocalyxin [8], 657; with human podocalyxin [9], 767; with human podocalyxin [10], 489; with human podocalyxin [11], 667; in the test with human podocalyxin [12], 629. Besides, the figures for the Live cell GeoMean FL (geometric mean fluorescence units) in the test with human podocalyxin [13], with human podocalyxin [14] and with human podocalyxin [15] were 446, 653 and 477, respectively.

As for MAB1658 (R&D Systems) (antibody), the FACS signal (name not given) with human podocalyxin [2] was found to be 431; with human podocalyxin [3] it was 476; with human podocalyxin [4], 26900; with human podocalyxin [5], 127000; in the test with human podocalyxin [6] it was 4720.

Consider hIgG2 (antibody), for which the FACS signal (name not given) with human podocalyxin [1] was 533.

B1: Rb/huPodo 83 hIgG2 (antibody, V domains shown)
VH: CQSLAESGGRLVTPGTPLTLTCTASGIDLSSYAMGWVRQAPGKGLEYIGFIYASGSIFYASWAKGRFTISKTSSTTVDLKMTSLTTEDTATYFCARAGYYFGGNYDLNLWGQGTLVTVSS
VL: DIVLTQTPASVEVAVGGTVTIKCQASQSISNYLAWYQRKPGQPPRLLIYRASTLASGVSSRFKGSGSGTQFTLTISGVECADAATYYCQQGYVSNNLDNIFGGGTEVVVK
modifications: human IgG2 constant regions
In the case of B1, in test [16], the FACS signal (name not given) worked out at 98300.

B2: Rabbit Podo 83 (Parental rabbit antibody) (antibody, V domains shown)
VH: CQSLAESGGRLVTPGTPLTLTCTASGIDLSSYAMGWVRQAPGKGLEYIGFIYASGSIFYASWAKGRFTISKTSSTTVDLKMTSLTTEDTATYFCARAGYYFGGNYDLNLWGQGTLVTVSS
VL: DIVLTQTPASVEVAVGGTVTIKCQASQSISNYLAWYQRKPGQPPRLLIYRASTLASGVSSRFKGSGSGTQFTLTISGVECADAATYYCQQGYVSNNLDNIFGGGTEVVVK
modifications: rabbit constant regions
Consider B2, for which the FACS signal (name not given) in test [17] was 129000; in [18] it was 179000; in test [19] it was 15500; in test [20], 53700; in [21] it was 139000; in [22], 90800. For the same molecule, the FACS signal (name not given) in test [23] turned out to be 24100; in test [24] it was 89700.

B3: Mouse anti-podocalyxin antibody 3G2 (antibody, V domains shown)
VH: EVQLQQSGPELVKPGASVKMSCKASGYTFTSYVMHWVKQKPGQGLEWIGYIHPYNDGTNYNEKFKGKATLTSDKSSNTAYMELSSLTSEDSAVYYCARSWDWYFDVWGAGTTVTVSS
VL: QIVLTQSPAIMSASPGEKVTMTCSANSNVRYIHWHQQKSGTSPKRWIYDTSKLSSGVPARFSGSGSGTSYSLTISNMEAEDAATYYCQQWISNPLTFGAGTKLELK
The Kd is the equilibrium constant for the complex coming apart. A higher Kd goes with a looser complex. Molecule B3 came in with a Kd with human podocalyxin [25] of 3.34 nM.

B4: huPodo 83 1:1 (humanized anti-podocalyxin antibody 83, version 1) (antibody, V domains shown)
VH: EVQLVESGGGLVQPGGSLRLSCAASGIDLSSYAMGWVRQAPGKGLEWVSFIYASGSIFYASWAKGRFTISRDNSKNTLYLQMNSLRAEDTAVYYCARAGYYFGGNYDLNLWGQGTLVTVSS
VL: DIQMTQSPSSLSASVGDRVTITCQASQSISNYLAWYQQKPGKVPKLLIYRASTLASGVPSRFSGSGSGTDFTLTISSLQPEDVATYYCQQGYVSNNLDNIFGGGTEVVVK
The EC50 is the concentration at which the effect is half-maximal. Read a low EC50 as greater potency. Broadly, the IC50 is the midpoint of a concentration-inhibition curve. With B4, the “FACS signal (name not given)” value in the test with human podocalyxin [26] turned out to be 112000; in the test with human podocalyxin [27] it was 125000; with human podocalyxin [28], 39400; with human podocalyxin [29], 91500; with human podocalyxin [30], 128000; with human podocalyxin [31] it was 124000. In addition, the “FACS signal (name not given)” value with human podocalyxin [32] worked out at 61600; with human podocalyxin [35], 157000. In the test with human podocalyxin [25], this molecule came in with a Kd of 0.26 nM. Also, the half-maximal effective concentration (EC50) with human podocalyxin [33] amounted to 0.0331 µg/mL. In the test with human podocalyxin [34], it took 0.0355 µg/mL to reach half-maximal inhibition (IC50).

B5: huPodo 83 2:1 (humanized anti-podocalyxin antibody 83, version 2) (antibody, V domains shown)
VH: EVQLVESGGGLVQPGGSLRLSCAASGIDLSSYAMGWVRQAPGKGLEWVSFIYASGSIFYASWAKGRFTISRDNSNTLYLQMNSLRAEDTAVYYCARAGYYFGGNYDLNLWGQGTLVTVSS
VL: DIQMTQSPSSLSASVGDRVTITCQASQSISNYLAWYQQKPGKVPKLLIYRASTLASGVPSRFSGSGSGTDFTLTISSLQPEDVATYYCQQGYVSNNLDNIFGGGTEVVVK
Turning to B5, the “FACS signal (name not given)” value stood at 105000 in the test with human podocalyxin [26]; 123000 with human podocalyxin [27]; 22300 in the test with human podocalyxin [28]; 67200 with human podocalyxin [29]; 108000 with human podocalyxin [30]; 139000 in the test with human podocalyxin [31]. The results for the “FACS signal (name not given)” value in the test with human podocalyxin [32] and with human podocalyxin [35] were 37700 and 79400, respectively. This molecule also returned an EC50 in the test with human podocalyxin [33] of 0.0519 µg/mL. In the test with human podocalyxin [34], this molecule yielded a half-inhibitory concentration (IC50) of 0.052 µg/mL.

B6: Rb VH, Vk 1:1 (Podo 83 rabbit VH, human CH1-CH3, human Ck, and humanized Vk) (antibody, V domains shown)
VH: QSLAESGGRLVTPGTPLTLTCTASGIDLSSYAMGWVRQAPGKGLEYIGFIYASGSIFYASWAKGRFTISKTSSTTVDLKMTSLTTEDTATYFCARAGYYFGGNYDLNLWGQGTLVTVSS
VL: DIQMTQSPSSLSASVGDRVTITCQASQSISNYLAWYQQKPGKVPKLLIYRASTLASGVPSRFSGSGSGTDFTLTISSLQPEDVATYYCQQGYVSNNLDNIFGGGTEVVVK
With B6, the “FACS signal (name not given)” value was 115000 with human podocalyxin [26]; 130000 with human podocalyxin [27]; 47700 in the test with human podocalyxin [28]; 94800 with human podocalyxin [29]; 124000 with human podocalyxin [30]; 137000 in the test with human podocalyxin [31]. Also, the “FACS signal (name not given)” value was 74500 with human podocalyxin [32] and 76400 with human podocalyxin [35].
